Assay results taken from patent US20240400701A1 (LANOVA MEDICINES DEVELOPMENT, published 2024).
Changes are numbered by the printed parent chain. Names may count otherwise.

T1: human AMHRII (anti-Mullerian hormone receptor type 2) (human, UniProt Q16671 18-573)
T1 construct: whole, on cells; also called AMHR2; human AMHR2
T1 sequence (looked up): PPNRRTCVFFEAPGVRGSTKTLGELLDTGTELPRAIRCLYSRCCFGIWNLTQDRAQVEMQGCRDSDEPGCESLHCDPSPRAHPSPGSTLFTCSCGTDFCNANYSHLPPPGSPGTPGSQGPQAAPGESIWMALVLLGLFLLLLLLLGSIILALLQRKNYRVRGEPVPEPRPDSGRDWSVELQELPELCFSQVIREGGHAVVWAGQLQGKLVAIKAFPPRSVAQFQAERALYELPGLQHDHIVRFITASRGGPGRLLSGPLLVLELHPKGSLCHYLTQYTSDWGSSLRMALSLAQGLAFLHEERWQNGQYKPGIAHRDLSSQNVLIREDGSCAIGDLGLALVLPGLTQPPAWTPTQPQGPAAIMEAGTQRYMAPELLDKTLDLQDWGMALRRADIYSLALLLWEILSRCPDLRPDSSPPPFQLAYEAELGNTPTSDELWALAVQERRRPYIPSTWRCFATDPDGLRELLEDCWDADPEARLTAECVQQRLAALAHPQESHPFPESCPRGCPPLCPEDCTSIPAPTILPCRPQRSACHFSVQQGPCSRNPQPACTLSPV

B1: 31D9B3 H1L2 hIgG1 (antibody, V domains shown)
VH: QVQLVQSGAEVKKPGASVKVSCKASGYTFTDYWVSWVRQAPGQGLEWMGEIYPKNGVSNFNEKFKGRVTMTTDTSTSTAYMELRSLRSDDTAVYYCARQRDYWGQGTLVTVSS
VL: DVVMTQSPLSLPVTLGQPASISCRSSQSLEYGDGYTYLEWYLQRPGQSPRLLIYGVSNRFSGVPDRFSGSGSGTDFTLKISRVEAEDVGVYYCFQATHDPNTFGQGTKLEIK
notes: Humanized, human IgG1; also called 31D9B3 H1L2 hlgG1; 31D9B3 VH1-VL2 hlgG1
B2: 31D9B3 H1L1 hIgG1 (antibody, V domains shown)
VH: B1 VH
VL: B1 VL with Y41F, L42Q, L51R
notes: Humanized, human IgG1; also called 31D9B3 H1L1 hlgG1
B3: 31D9B3 H1L3 hIgG1 (antibody, V domains shown)
VH: B1 VH
VL: B1 VL with S68I, Q105A
notes: Humanized, human IgG1; also called 31D9B3 H1L3 hlgG1
B4: 31D9B3 H1L4 hIgG1 (antibody, V domains shown)
VH: B1 VH
VL: B1 VL with M4L, R50Q, S68I, A85P, Q105A
notes: Humanized, human IgG1; also called 31D9B3 H1L4 hlgG1
B5: 31D9B3 H2L1 hIgG1 (antibody, V domains shown)
VH: B1 VH with K12V, M48I, T72V, A97T
VL: B1 VL with Y41F, L42Q, L51R
notes: Humanized, human IgG1; also called 31D9B3 H2L1 hlgG1
B6: 31D9B3 H2L2 hIgG1 (antibody, V domains shown)
VH: B1 VH with K12V, M48I, T72V, A97T
VL: B1 VL
notes: Humanized, human IgG1; also called 31D9B3 H2L2 hlgG1
B7: 31D9B3 H2L3 hIgG1 (antibody, V domains shown)
VH: B1 VH with K12V, M48I, T72V, A97T
VL: B1 VL with S68I, Q105A
notes: Humanized, human IgG1; also called 31D9B3 H2L3 hlgG1
B8: 31D9B3 H2L4 hIgG1 (antibody, V domains shown)
VH: B1 VH with K12V, M48I, T72V, A97T
VL: B1 VL with M4L, R50Q, S68I, A85P, Q105A
notes: Humanized, human IgG1; also called 31D9B3 H2L4 hlgG1
B9: 31D9B3 H3L1 hIgG1 (antibody, V domains shown)
VH: B1 VH with K13V, V20M, A40S, M48I, M70L, T72V, T74K, A97T, T107V
VL: B1 VL with Y41F, L42Q, L51R
notes: Humanized, human IgG1; also called 31D9B3 H3L1 hlgG1
B10: 31D9B3 H3L2 hIgG1 (antibody, V domains shown)
VH: B1 VH with K13V, V20M, A40S, M48I, M70L, T72V, T74K, A97T, T107V
VL: B1 VL
notes: Humanized, human IgG1; also called 31D9B3 H3L2 hlgG1
B11: 31D9B3 H3L3 hIgG1 (antibody, V domains shown)
VH: B1 VH with K13V, V20M, A40S, M48I, M70L, T72V, T74K, A97T, T107V
VL: B1 VL with S68I, Q105A
notes: Humanized, human IgG1; also called 31D9B3 H3L3 hlgG1
B12: 31D9B3 VH1.3-VL2 hIgG1 (antibody, V domains shown)
VH: B1 VH with G56Q
VL: B1 VL
notes: Humanized, PTM de-risked (VH G55Q), human IgG1; also called 31D9B3 VH1.3-VL2 hlgG1
B13: 94C4C3 H3L1 hIgG1 (antibody, V domains shown)
VH: QVQLQESGPGLVKPSETLSLTCTVSGYSITSDYAWNWIRQFPGKGLEWMGYISYSGSISYNPSLKSRITISRDTSKNQFFLKLSSVTAADTAVYYCARSRYSWFDYWGQGTLVTVSS
VL: EIVLTQSPGTLSLSPGERATLSCSASESVDTYGNSFMHWYQQKPGQAPRLLIYRASSLESGIPDRFSGSGSGTDFTLTISRLEPEDFAVYYCQQSNEDPYTFGGGTKVEIK
notes: Humanized, human IgG1; also called 94C4C3 H3L1 hlgG1
B14: 94C4C3 H3L2 hIgG1 (antibody, V domains shown)
VH: B13 VH
VL: B13 VL with A47P, D64V, G72R
notes: Humanized, human IgG1; also called 94C4C3 H3L2 hlgG1
B15: 94C4C3 H3L3 hIgG1 (antibody, V domains shown)
VH: B13 VH
VL: B13 VL with A47P, D64V, G72R, L82V, P84A, V108L
notes: Humanized, human IgG1; also called 94C4C3 H3L3 hlgG1
B16: 94C4C3 H3L4 hIgG1 (antibody, V domains shown)
VH: B13 VH
VL: B13 VL with E1D, L13V, A47P, R49K, D64V, G72R, L82V, P84A, V108L
notes: Humanized, human IgG1; also called 94C4C3 H3L4 hlgG1
B17: 94C4C3 H4L1 hIgG1 (antibody, V domains shown)
VH: B13 VH with S25T, G45K, K82Q
VL: B13 VL
notes: Humanized, human IgG1; also called 94C4C3 H4L1 hlgG1
B18: 94C4C3 H4L2 hIgG1 (antibody, V domains shown)
VH: B13 VH with S25T, G45K, K82Q
VL: B13 VL with A47P, D64V, G72R
notes: Humanized, human IgG1; also called 94C4C3 H4L2 hlgG1
B19: 94C4C3 H4L3 hIgG1 (antibody, V domains shown)
VH: B13 VH with S25T, G45K, K82Q
VL: B13 VL with A47P, D64V, G72R, L82V, P84A, V108L
notes: Humanized, human IgG1; also called 94C4C3 H4L3 hlgG1
B20: 94C4C3 H4L4 hIgG1 (antibody, V domains shown)
VH: B13 VH with S25T, G45K, K82Q
VL: B13 VL with E1D, L13V, A47P, R49K, D64V, G72R, L82V, P84A, V108L
notes: Humanized, human IgG1; also called 94C4C3 H4L4 hlgG1
B21: 31D9B3 H3L4 hIgG1 (antibody, V domains shown)
VH: B1 VH with K13V, V20M, A40S, M48I, M70L, T72V, T74K, A97T, T107V
VL: B1 VL with M4L, R50Q, S68I, A85P, Q105A
notes: Humanized, human IgG1; also called 31D9B3 H3L4 hlgG1
B22: 31D9B3 H4L1 hIgG1 (antibody, V domains shown)
VH: QVQLVQSGAEVVKPGASVKMSCKASGYTFTDYWVSWVKQSPGQGLEWIGEIYPKNGVSNFNEKFKGKATLTVDKSTSTAYMELRRLRSDDTAVFYCTRQRDYWGQGVLVTVSS
VL: B1 VL with Y41F, L42Q, L51R
notes: Humanized, human IgG1; also called 31D9B3 H4L1 hlgG1
B23: 31D9B3 H4L2 hIgG1 (antibody, V domains shown)
VH: B22 VH
VL: B1 VL
notes: Humanized, human IgG1; also called 31D9B3 H4L2 hlgG1
B24: 31D9B3 H4L3 hIgG1 (antibody, V domains shown)
VH: B22 VH
VL: B1 VL with S68I, Q105A
notes: Humanized, human IgG1; also called 31D9B3 H4L3 hlgG1
B25: 31D9B3 H4L4 hIgG1 (antibody, V domains shown)
VH: B22 VH
VL: B1 VL with M4L, R50Q, S68I, A85P, Q105A
notes: Humanized, human IgG1; also called 31D9B3 H4L4 hlgG1

Legend:
[1] = biological target: T1, human AMHRII (anti-Mullerian hormone …); assay: FACS on Rko cells over-expressing human AMHR2
Experimental: (§1) Rko cells over-expressing AMHR2 were harvested from flasks. 100 μl of 1×10⁶ cells/ml of cells were incubated with primary PTM antibodies in 3-fold serial dilutions starting from 300 nM to 0.001 nM for 30 minutes on ice. After being washed with 200 μl of FACS buffer twice, cells were incubated with secondary antibody for 30 minutes on ice. Cells were washed with 200 μl of FACS buffer twice and analyzed by FACS.

[2] = biological target: T1, human AMHRII (anti-Mullerian hormone …); assay: FACS on CHO-K1 cells over-expressing human AMHR2
Experimental: as §1, with “CHO-K1” for “Rko”, “over-expressed” for “over-expressing”, “the humanized” for “primary PTM”

[3] = biological target: T1, human AMHRII (anti-Mullerian hormone …); assay: FACS on CHO-K1 cells over-expressing human AMHR2; remark: listed apart in the source
Experimental: as §1, with “CHO-K1” for “Rko”, “over-expressed” for “over-expressing”, “the humanized” for “primary PTM”

[4] = biological target: T1, human AMHRII (anti-Mullerian hormone …); assay: FACS on CHO-K1 cells over-expressing human AMHR2; remark: listed apart in the source
Experimental: as §1, with “CHO-K1” for “Rko”, “over-expressed” for “over-expressing”, “the humanized” for “primary PTM”

[5] = biological target: T1, human AMHRII (anti-Mullerian hormone …); assay: FACS on CHO-K1 cells over-expressing human AMHR2; remark: listed apart in the source
Experimental: as §1, with “CHO-K1” for “Rko”, “over-expressed” for “over-expressing”, “the humanized” for “primary PTM”

[6] = biological target: T1, human AMHRII (anti-Mullerian hormone …); assay: FACS on CHO-K1 cells over-expressing human AMHR2; remark: listed apart in the source
Experimental: as §1, with “CHO-K1” for “Rko”, “over-expressed” for “over-expressing”, “the humanized” for “primary PTM”

Row | Binder | EC50 [2] | Top (MFI) [2] | EC50 [4] | Top (MFI) [4] | EC50 [6] | Top (MFI) [6] | also measured
1 | B1 | 1.49 nM | 36200 MFI | – | – | – | – | EC50 [1]: 1.21 nM; Top (MFI) [1]: 18300 MFI; EC50 [3]: 1.06 nM; Top (MFI) [3]: 26700 MFI
2 | B2 | 89.1 nM | 8940 MFI | – | – | – | – | –
3 | B3 | 1.36 nM | 34700 MFI | – | – | – | – | –
4 | B4 | 1.42 nM | 34100 MFI | – | – | – | – | –
5 | B5 | 22.5 nM | 19100 MFI | – | – | – | – | –
6 | B6 | 1.58 nM | 37900 MFI | – | – | – | – | –
7 | B7 | 1.28 nM | 36700 MFI | – | – | – | – | –
8 | B8 | 1.67 nM | 39200 MFI | – | – | – | – | –
9 | B9 | – | – | 3.01 nM | 19600 MFI | – | – | –
10 | B10 | – | – | 1.05 nM | 37900 MFI | – | – | –
11 | B11 | – | – | 1.3 nM | 38000 MFI | – | – | –
12 | B12 | – | – | – | – | – | – | EC50 [1]: 0.976 nM; Top (MFI) [1]: 17900 MFI; EC50 [5]: 1.18 nM; Top (MFI) [5]: 28000 MFI
13 | B13 | – | – | – | – | 1.32 nM | 51000 MFI | –
14 | B14 | – | – | – | – | 1.23 nM | 47700 MFI | –
15 | B15 | – | – | – | – | 1.03 nM | 46300 MFI | –
16 | B16 | – | – | – | – | 1.35 nM | 48100 MFI | –
17 | B17 | – | – | – | – | 1.12 nM | 49500 MFI | –
18 | B18 | – | – | – | – | 1.02 nM | 48700 MFI | –
19 | B19 | – | – | – | – | 1.16 nM | 51100 MFI | –
20 | B20 | – | – | – | – | 1.09 nM | 57900 MFI | –
21 | B21 | – | – | 1.01 nM | 36400 MFI | – | – | –
22 | B22 | – | – | 2.18 nM | 16100 MFI | – | – | –
23 | B23 | – | – | 0.84 nM | 36200 MFI | – | – | –
24 | B24 | – | – | 0.83 nM | 36000 MFI | – | – | –
25 | B25 | – | – | 0.75 nM | 37200 MFI | – | – | –
